Assays:
[1] = biological target: TupBlac (Tupanvirus deep ocean MBL fold protein AUL78925.1) (Tupanvirus deep ocean, UniProt A0AC62AAK8); assay: LC-MS of penicillin G hydrolysis and benzylpenilloic acid formation; format: biochemical; details: sulbactam 10 µg/mL, penicillin G 10 µg/mL, room temperature, up to 48 h; inhibition qualitative, mechanism not determined
[2] = test system: O=C(Cc1cccs1)N[C@@H]1C(=O)N2C(C(=O)O)=C(/C=C/c3ccc([N+](=O)[O-])cc3[N+](=O)[O-])CS[C@H]12; assay: purified protein; details: PBS pH 7.4, promiscuous beta-lactamase activity

Compound	LC-MS of penicillin G hydrolysis and benzylpenilloic acid formation [1]	Km [2] [µM]	kcat [2]
CC1(C)[C@H](C(=O)O)N2C(=O)C[C@H]2S1(=O)=O [sulbactam]	both penicillin G degradation and benzylpenilloic acid appearance were inhibited by sulbactam	–	–
TupBlac (Tupanvirus deep ocean MBL fold protein AUL78925.1) (Tupanvirus deep ocean)	–	160 ± 5	8.8 × 10^–4 ± 8.5 × 10^–5 s^−1

— article PMC7729979, “A protein of the metallo-hydrolase/oxidoreductase superfamily with both beta-lactamase and ribonuclease activity is linked with translation in giant viruses” (Scientific Reports, 2020)
